{
  "source": "patent US20250249113A1",
  "about": "“LIGAND-DRUG-CONJUGATES WITH IMPROVED PHARMACOKINETIC AND DRUG RELEASE PROPERTIES” (Debiopharm Research & Manufacturing S.A., priority 2022, published 2025)",
  "molecules": {"B1": {"name": "Debio 1562: Comparative example: naratuximab reacted with crosslinking reagent SMCC and the maytansinoid DM1; DAR 3.5 (conjugate, chains of the INN, looked up)", "VH": "QVQVQESGPGLVAPSQTLSITCTVSGFSLTTSGVSWVRQPPGKGLEWLGVIWGDGSTNYHPSLKSRLSIKKDHSKSQVFLKLNSLTAADTATYYCAKGGYSLAHWGQGTLVTVSS", "VL": "DIQMTQSPSSLSVSVGERVTITCRASENIRSNLAWYQQKPGKSPKLLVNVATNLADGVPSRFSGSGSGTDYSLKINSLQPEDFGTYYCQHYWGTTWTFGQGTKLEIK", "modifications": "SMCC-DM1, DAR 3.5"}},
  "experiment_in_all_cases": "In vitro cytotoxicity on DLBCL cell lines panel (CellTiter Glo)",
  "format_in_all_cases": "cell-based",
  "key": {"[1]": {"test_system": "A3/KAW cells", "conditions": "A3/KAW cell line, 72 hours of incubation, relative IC50", "experimental": "(§1) After 72 hours of incubation, plates were inspected under an inverted microscope to ensure growth of the controls and sterile conditions. Then, 50 μL CellTiter Glo (Promega, G7572) were added prior to luminescence reading as per the manufacturer's instructions. Relative IC50 were calculated using GraphPad Prism."}, "[2]": {"test_system": "DOHH-2 cells", "conditions": "DOHH-2 cell line, 72 hours of incubation, relative IC50", "experimental": "as §1"}, "[3]": {"test_system": "HBL-1 cells", "conditions": "HBL-1 cell line, 72 hours of incubation, relative IC50", "experimental": "as §1"}, "[4]": {"test_system": "KARPAS-422 cells", "conditions": "KARPAS-422 cell line, 72 hours of incubation, relative IC50", "experimental": "as §1"}, "[5]": {"test_system": "OCI-LY19 cells", "conditions": "OCI-LY19 cell line, 72 hours of incubation, relative IC50", "experimental": "as §1"}, "[6]": {"test_system": "OCI-LY3 cells", "conditions": "OCI-LY3 cell line, 72 hours of incubation, relative IC50", "experimental": "as §1"}, "[7]": {"test_system": "OCI-LY7 cells", "conditions": "OCI-LY7 cell line, 72 hours of incubation, relative IC50", "experimental": "as §1"}, "[8]": {"test_system": "Pfeiffer cells", "conditions": "Pfeiffer cell line, 72 hours of incubation, relative IC50", "experimental": "as §1"}, "[9]": {"test_system": "SU-DHL-2 cells", "conditions": "SU-DHL-2 cell line, 72 hours of incubation, relative IC50", "experimental": "as §1"}, "[10]": {"test_system": "SU-DHL-4 cells", "conditions": "SU-DHL-4 cell line, 72 hours of incubation, relative IC50", "experimental": "as §1"}, "[11]": {"test_system": "SU-DHL-5 cells", "conditions": "SU-DHL-5 cell line, 72 hours of incubation, relative IC50", "experimental": "as §1"}, "[12]": {"test_system": "SU-DHL-6 cells", "conditions": "SU-DHL-6 cell line, 72 hours of incubation, relative IC50", "experimental": "as §1"}, "[13]": {"test_system": "SU-DHL-8 cells", "conditions": "SU-DHL-8 cell line, 72 hours of incubation, relative IC50", "experimental": "as §1"}, "[14]": {"test_system": "Toledo cells", "conditions": "Toledo cell line, 72 hours of incubation, relative IC50", "experimental": "as §1"}, "[15]": {"test_system": "U-2932 cells", "conditions": "U-2932 cell line, 72 hours of incubation, relative IC50", "experimental": "as §1"}, "[16]": {"test_system": "WSU-DLCL2 cells", "conditions": "WSU-DLCL2 cell line, 72 hours of incubation, relative IC50", "experimental": "as §1"}, "[17]": {"test_system": "WSU-NHL cells", "conditions": "WSU-NHL cell line, 72 hours of incubation, relative IC50", "experimental": "as §1"}},
  "data": [
    {"molecule": "B1", "values": [
      {"measurement": "IC50", "setting": "[1]", "value": 33, "unit": "nM"},
      {"measurement": "IC50", "setting": "[2]", "value": 0.949, "unit": "nM"},
      {"measurement": "IC50", "setting": "[3]", "value": 0.217, "unit": "nM"},
      {"measurement": "IC50", "setting": "[4]", "value": 20.5, "unit": "nM"},
      {"measurement": "IC50", "setting": "[5]", "value": 45.5, "unit": "nM"},
      {"measurement": "IC50", "setting": "[6]", "value": 0.352, "unit": "nM"},
      {"measurement": "IC50", "setting": "[7]", "value": 79.3, "unit": "nM"},
      {"measurement": "IC50", "setting": "[8]", "value": 73.5, "unit": "nM"},
      {"measurement": "IC50", "setting": "[9]", "value": 7.78, "unit": "nM"},
      {"measurement": "IC50", "setting": "[10]", "value": 0.983, "unit": "nM"},
      {"measurement": "IC50", "setting": "[11]", "value": 0.901, "unit": "nM"},
      {"measurement": "IC50", "setting": "[12]", "value": 1.74, "unit": "nM"},
      {"measurement": "IC50", "setting": "[13]", "value": 21.5, "unit": "nM"},
      {"measurement": "IC50", "setting": "[14]", "value": 90, "unit": "nM"},
      {"measurement": "IC50", "setting": "[15]", "value": 3.57, "unit": "nM"},
      {"measurement": "IC50", "setting": "[16]", "value": 9.59, "unit": "nM"},
      {"measurement": "IC50", "setting": "[17]", "value": 0.19, "unit": "nM"}
    ]}
  ]
}
